Data reported in publication PMC2649033, “Comparison between the HCV IRES domain IV RNA structure and the Iron Responsive Element”.

Experiments:
Conditions in all cases: protein: recombinant; label: 32P-CTP; hairpin
hIRP1 (GST fusion) [1] = biological target: T1, hIRP1 (GST fusion) (human, UniProt P21399 1-889); experiment: EMSA; 240 ng hIRP1; also bound at 100 ng; approx. equal to ET1+2+3; 10 mM HEPES pH 7.6, 2 mM MgCl2, 40 mM KCl, 5% glycerol, 1 mM DTT, 20 uL, room temperature 30 min, then heparin 0.63 ug/uL 10 min; native PAGE (7%/14%) in 0.5x TBE
T1 sequence: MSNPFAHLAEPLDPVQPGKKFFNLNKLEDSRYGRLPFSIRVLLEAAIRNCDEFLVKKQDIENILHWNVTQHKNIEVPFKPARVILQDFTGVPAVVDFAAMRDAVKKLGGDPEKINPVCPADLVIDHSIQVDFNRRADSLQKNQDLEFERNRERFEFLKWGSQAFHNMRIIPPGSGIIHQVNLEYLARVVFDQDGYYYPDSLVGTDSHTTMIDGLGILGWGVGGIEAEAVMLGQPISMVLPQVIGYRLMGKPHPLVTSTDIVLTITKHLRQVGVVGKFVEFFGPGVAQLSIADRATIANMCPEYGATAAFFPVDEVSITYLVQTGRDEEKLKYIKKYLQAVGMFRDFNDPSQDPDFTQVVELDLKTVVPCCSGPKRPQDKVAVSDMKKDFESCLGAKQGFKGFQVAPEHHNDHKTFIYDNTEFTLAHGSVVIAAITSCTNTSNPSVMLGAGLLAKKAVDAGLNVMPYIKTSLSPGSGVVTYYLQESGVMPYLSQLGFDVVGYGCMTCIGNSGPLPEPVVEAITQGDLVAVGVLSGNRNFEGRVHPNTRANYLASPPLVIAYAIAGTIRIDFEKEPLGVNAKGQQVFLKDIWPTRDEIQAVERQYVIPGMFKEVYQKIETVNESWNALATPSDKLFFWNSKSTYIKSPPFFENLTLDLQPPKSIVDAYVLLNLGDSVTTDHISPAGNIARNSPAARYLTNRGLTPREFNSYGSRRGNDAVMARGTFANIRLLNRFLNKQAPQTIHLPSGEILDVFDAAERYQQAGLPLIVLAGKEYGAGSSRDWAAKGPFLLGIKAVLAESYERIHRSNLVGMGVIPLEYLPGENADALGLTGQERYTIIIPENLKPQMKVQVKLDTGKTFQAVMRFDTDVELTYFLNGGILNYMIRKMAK

hIRP1 (GST fusion) [2] = biological target: T1, hIRP1 (GST fusion); experiment: EMSA; 240 ng hIRP1; 10 mM HEPES pH 7.6, 2 mM MgCl2, 40 mM KCl, 5% glycerol, 1 mM DTT, 20 uL, room temperature 30 min, […] (7%/14%) […]
hIRP1 (GST fusion) [3] = biological target: T1, hIRP1 (GST fusion); experiment: EMSA; 2 mM Mg2+; 5.2 nM RNA; mean of 3 experiments; 10 mM HEPES pH 7.6, 2 mM MgCl2, 40 mM KCl, 5% glycerol, 1 mM DTT, 20 uL, room temperature 30 min, […] (7%/14%) […]
hIRP1 (GST fusion) [4] = biological target: T1, hIRP1 (GST fusion); experiment: EMSA; 240 ng hIRP1; 10 mM HEPES pH 7.6, 2 mM MgCl2, 40 mM KCl, 5% glycerol, 1 mM DTT, 20 uL, room temperature 30 min, then heparin 0.63 ug/uL 10 min; native PAGE (7%/14%) in 0.5x TBE
hIRP1 (GST fusion) [5] = biological target: T1, hIRP1 (GST fusion); experiment: EMSA; 2 mM Mg2+; 5.2 nM RNA; data not shown; 10 mM HEPES pH 7.6, 2 mM MgCl2, 40 mM KCl, 5% glycerol, 1 mM DTT, 20 uL, room temperature 30 min, […] (7%/14%) […]

B1: eALAS IRE (structured_RNA)
RNA: GUUCGUCCUCAGUGCAGGGCAAC
- binding result (hIRP1 (GST fusion) [1]): binds

B2: ET1 (structured_RNA)
RNA: GACCGUGCACCGUGAGCACGAAUC
- binding result (hIRP1 (GST fusion) [2]): no binding

B3: ET2+3 (structured_RNA)
RNA: GACCGUGCCCAUGAGCACGUC
- Kd (hIRP1 (GST fusion) [3]): 54 ± 13 nM

B4: IRE (-) negative control (structured_RNA)
RNA: GUUCGUCCUGCUCCGAGGGCAAC
- binding result (hIRP1 (GST fusion) [4]): no binding

B5: HCV IRES dIV wild type (structured_RNA)
RNA: GACCGUGCACCAUGAGCACGAAUC
- binding result (hIRP1 (GST fusion) [2]): no binding

B6: ET1+2+3 (structured_RNA)
RNA: GACCGUGCCCGUGAGCACGUC
- Kd (hIRP1 (GST fusion) [5]): ~0.05 nM
